Experimental data as given in EP2004352B1 (Palatin Technologies, Inc., dated 2012).
Bridge positions count the residues as written; N and C are the ends.

Legend:
[1] = target: T1, human natriuretic peptide receptor A (NPRA) (human, UniProt P16066 33-1061); experiment: cell-based or functional assay
T1 sequence (looked up): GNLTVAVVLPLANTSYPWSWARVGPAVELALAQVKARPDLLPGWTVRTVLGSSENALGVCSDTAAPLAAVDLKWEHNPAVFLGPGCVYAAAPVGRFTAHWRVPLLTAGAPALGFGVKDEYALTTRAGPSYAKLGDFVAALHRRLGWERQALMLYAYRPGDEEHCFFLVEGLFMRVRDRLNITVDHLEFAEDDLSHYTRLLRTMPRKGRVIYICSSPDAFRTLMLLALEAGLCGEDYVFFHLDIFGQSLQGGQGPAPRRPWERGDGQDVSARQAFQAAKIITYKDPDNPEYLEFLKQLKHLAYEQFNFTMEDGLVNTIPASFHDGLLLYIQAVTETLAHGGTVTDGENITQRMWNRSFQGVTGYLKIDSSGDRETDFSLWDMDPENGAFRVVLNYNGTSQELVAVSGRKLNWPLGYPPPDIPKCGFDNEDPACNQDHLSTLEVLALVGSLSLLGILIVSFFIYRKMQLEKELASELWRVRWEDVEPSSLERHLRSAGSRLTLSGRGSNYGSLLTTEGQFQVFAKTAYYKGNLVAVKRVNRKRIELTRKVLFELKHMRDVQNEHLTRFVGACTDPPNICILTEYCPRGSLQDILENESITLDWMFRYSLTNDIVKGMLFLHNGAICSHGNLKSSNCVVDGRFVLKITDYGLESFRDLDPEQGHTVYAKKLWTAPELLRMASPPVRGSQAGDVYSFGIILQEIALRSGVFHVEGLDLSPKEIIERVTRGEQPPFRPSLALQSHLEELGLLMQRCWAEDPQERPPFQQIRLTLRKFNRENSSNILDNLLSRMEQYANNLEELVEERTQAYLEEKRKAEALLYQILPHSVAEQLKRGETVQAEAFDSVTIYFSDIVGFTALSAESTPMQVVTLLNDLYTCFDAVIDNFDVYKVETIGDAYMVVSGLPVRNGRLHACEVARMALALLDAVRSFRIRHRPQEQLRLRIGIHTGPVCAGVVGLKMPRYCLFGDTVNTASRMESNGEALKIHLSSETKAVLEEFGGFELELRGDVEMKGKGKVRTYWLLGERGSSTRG

[2] = target: T1, human natriuretic peptide receptor A …; experiment: competition with [125I]-ANP on HEK-hNPRA membrane homogenates

- EC50 (cGMP accumulation) [1]: 3.3 nM
- Ki [2]: 0.6 nM
B1: mini-ANP, H-Met-cyclo(Cys-His-Phe-Gly-Gly-Arg-Met-Asp-Arg-Ile-Ser-Cys)-Tyr-Arg-NH2 (peptide)
peptide: H-MCHFGGRMDRISCYR-NH2
modifications: disulfide 2-13
SMILES: CC[C@H](C)[C@@H]1NC(=O)[C@H](CCCNC(=N)N)NC(=O)[C@H](CC(=O)O)NC(=O)[C@H](CCSC)NC(=O)[C@H](CCCNC(=N)N)NC(=O)CNC(=O)CNC(=O)[C@H](Cc2ccccc2)NC(=O)[C@H](Cc2c[nH]cn2)NC(=O)[C@@H](NC(=O)[C@@H](N)CCSC)CSSC[C@@H](C(=O)N[C@@H](Cc2ccc(O)cc2)C(=O)N[C@@H](CCCNC(=N)N)C(N)=O)NC(=O)[C@H](CO)NC1=O
notes: also called min-ANP; parent polypeptide
